These results are taken from article doi:10.1101/2025.11.21.687491v1.

Common to all, as to assay: purified protein
What all share (details): GSH co-substrate, pH 7.0, 37 °C

Substrate in data set [1]: CCCCCC(/C=C/C=C\CCCCCCCC(=O)O)OO
Substrate in data set [2]: CCCCCC(/C=C/C=C/CCCCCCCC(=O)O)OO
Substrate in data set [3]: CCCCC/C=C\CC(/C=C/CCCCCCC(=O)O)OO
Substrate in data set [4]: CCCCC/C=C/C=C/C(CCCCCCCC(=O)O)OO
Substrate in data set [5]: CCCC/C=C/C(C/C=C\CCCCCCCC(=O)O)OO

B1: AtGSTU17 (U17) (Arabidopsis thaliana) (protein)
chain: MASSDVKLIGAWASPFVMRPRIALNLKSVPYEFLQETFGSKSELLLKSNPVHKKIPVLLHADKPVSESNIIVEYIDDTWSSSGPSILPSDPYDRAMARFWAAYIDEKWFVALRGFLKAGGEEEKKAVIAQLEEGNAFLEKAFIDCSKGKPFFNGDNIGYLDIALGCFLAWLRVTELAVSYKILDEAKTPSLSKWAENFCNDPAVKPVMPETAKLAEFAKKIFPKPQA
B1: the Km in the data set “purified protein [1]” amounted to 10.36 µM; in “purified protein [2]” it was 24.65 µM; in the data set “purified protein [3]”, 9.27 µM; in the data set “purified protein [4]”, 8.97 µM; in the data set “purified protein [5]”, 20.4 µM. The catalytic constant (kcat) in the data set “purified protein [1]” is 2.55 s⁻¹; in “purified protein [2]”, 2.44 s⁻¹; in “purified protein [3]”, 1.46 s⁻¹; in the data set “purified protein [4]” it was 1.13 s⁻¹; in the data set “purified protein [5]” it was 2.71 s⁻¹.
